Measured values: patent publication US20120322150

Tests used:
[1] = target: T1, GST-BIN2 (UniProt Q39011)
T1 sequence: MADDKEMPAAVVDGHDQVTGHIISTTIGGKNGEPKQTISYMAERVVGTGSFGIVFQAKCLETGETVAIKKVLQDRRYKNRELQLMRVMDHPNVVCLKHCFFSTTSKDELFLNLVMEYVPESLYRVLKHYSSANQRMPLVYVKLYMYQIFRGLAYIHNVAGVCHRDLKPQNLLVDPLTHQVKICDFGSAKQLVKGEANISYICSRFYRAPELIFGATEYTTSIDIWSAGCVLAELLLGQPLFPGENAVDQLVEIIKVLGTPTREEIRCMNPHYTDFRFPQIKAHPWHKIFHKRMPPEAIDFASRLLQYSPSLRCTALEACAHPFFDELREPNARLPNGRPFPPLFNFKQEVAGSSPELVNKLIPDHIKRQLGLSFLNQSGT

[2] = target: GST-hsGSK3β (UniProt P49841)
Chain of GST-hsGSK3β (P49841 whole entry, looked up): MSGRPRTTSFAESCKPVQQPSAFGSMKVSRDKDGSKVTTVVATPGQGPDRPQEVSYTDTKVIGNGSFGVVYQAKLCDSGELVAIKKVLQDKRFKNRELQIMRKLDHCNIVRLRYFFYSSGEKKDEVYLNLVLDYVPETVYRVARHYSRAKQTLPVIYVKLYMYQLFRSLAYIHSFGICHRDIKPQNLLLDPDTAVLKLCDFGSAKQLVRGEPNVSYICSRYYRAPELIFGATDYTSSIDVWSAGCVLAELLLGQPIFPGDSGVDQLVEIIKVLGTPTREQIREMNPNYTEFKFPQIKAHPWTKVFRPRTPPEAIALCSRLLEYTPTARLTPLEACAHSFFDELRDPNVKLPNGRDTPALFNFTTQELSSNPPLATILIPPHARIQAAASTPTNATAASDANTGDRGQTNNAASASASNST

Row | Substance | dephosphorylation of BIN2 tyrosine200 [1] | phosphorylation status of tyrosine 216 of hsGSK3β (immunoblot with anti-phospho-tyrosine 216 antibody) [2]
1 | PP1 purified from E. coli | The presence of PP1 increased dephosphorylation of BIN2 tyrosine200 | 
2 | MBP-hsPPP1cc |  | human protein phosphatase 1 gamma (PP1γ) dephosphorylates tyrosine 216 of human GSK3 beta in vitro
